Columns and labels:
Eotaxin = target: T1, Eotaxin (Homo sapiens, UniProt P51671); assay: Micro-array analysis of chemokine binding peptides: Eotaxin
T1 construct: purchased 300-21
Protocol: (§1) (1) Printing: Chemokine (CK) solution (in water) was serially diluted with Print Reagent (GenTel BioSurfaces USA) to final concentrations of 50 μg and 25 μg/ml. BSA/BSA-Biotin control solutions (in water) were diluted with Print Reagent to 100 μg/ml. Amplified stock of M13 phage control (M13KEgIII Cloning Vector, New England Biolabs, Cat.No.E8101S) was stored in Tris Buffered Saline (TBS; pH7.5, 4° C.) and diluted with Print Reagent to the working titre (10^8 pfu/μl). An automated spotting robot (16 pin print tool, 0.4 mm head; BioRobotics, UK) was used to print the CK/BSA control/M13 control, 5 repeats per sample (CK 25 μg/ml and 50 μg/ml; BSA 100 μg/ml; M13 20 μl), on PATH Protein Microarray Slides (GenTel, Prod.No. 2-1005/-1025) at […], and 50-70% relative humidity. Printed micro-array slides were stored at Room Temperature (RT) or 4° C. for at least 24 h before use.
(§2) (2) Blocking: Block Buffer (500 μl/partition; PATHblock, GenTel, Prod.No. 2-1014) was applied to the slide for 1 hour at room temp (RT). After removal of Block Buffer, the slide was air dried for 25 minutes;
(§3) (3) Phage Presented Peptide Binding: Amplified recombinant phage stock was stored in TBS and diluted with Wash Buffer to working titer (10^7 pfu/μl). Recombinant phage suspension (300 μl) was applied per partition and incubated at RT for 1 hour with gentle agitation.
(§4) (4) First Washing: The slides were washed twice with Wash Buffer 300 μl/partition).
(§5) (5) Primary Antibody (Ab) Labeling: The slides were incubated with the Primary Ab (1 mg/ml diluted ×2500 (Wash Reagent), 300 μl; Mouse Anti-M13 monoclonal Ab; Amersham Biosciences, UK; Product Code 27-9420-01) for 45 minutes at RT.
(§6) (6) Second Washing: The slides were washed twice with Wash Buffer (300 μl/partition).
(§7) (7) Secondary Ab Labeling: The slides were incubated with Secondary Ab (1.5 mg/ml diluted ×5000 (Wash Reagent), 300 μl; Cy3-conjugated AffiniPure Goat Anti-Mouse IgG; Jackson ImmunoReserch Labs, USA; Product Code 115-165-062).
(§8) (8) Third Washing: The slides were washed twice with Wash Buffer (300 μl/partition).
(§9) (9) Rinse: the slides were rinsed twice with Rinse Buffer (PATHrinse, GenTel, Prod.No. 2-1018) then dried well.
(§10) (10) Scanning: The peptide-bound, labeled slide was scanned (Laser Intensity 80%, Gain 80%, Resolution 10 μm) with a ScanArray Life Scanner (Packard BioChip Technologies, USA).
(§11) (11) Analysis: Quantitative analysis of micro-array was performed by the SpotReader program of Niles Scientific (USA) and presented as Relative Fluorescence (RF) as a function of CK concentration. Micro-array readout (Cy3 fluorescence) was quantified to determine the relative binding affinities of a CBP for the CKs and by inference, the specificity of the CBP for binding to a CK.

RANTES = target: T2, RANTES (Homo sapiens, UniProt P13501); assay: Micro-array analysis of chemokine binding peptides: RANTES
T2 construct: purchased 300-06
T2 sequence (P13501 24-91): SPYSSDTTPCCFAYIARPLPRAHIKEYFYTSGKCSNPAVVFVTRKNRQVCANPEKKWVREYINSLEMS
Protocol: as §1, §2, §3, §4, §5, §6, §7, §8, §9, §10, §11

BCA-1 = target: T3, BCA-1 (Homo sapiens, UniProt O43927); assay: Micro-array analysis of chemokine binding peptides: BCA-1
T3 construct: purchased 300-47
T3 sequence (O43927 23-109): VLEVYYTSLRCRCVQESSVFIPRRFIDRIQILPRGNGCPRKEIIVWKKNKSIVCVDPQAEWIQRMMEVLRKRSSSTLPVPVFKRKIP
Protocol: as §1, §2, §3, §4, §5, §6, §7, §8, §9, §10, §11

Mig = target: T4, Mig (Homo sapiens, UniProt Q07325); assay: Micro-array analysis of chemokine binding peptides: Mig
T4 construct: purchased 300-26
T4 sequence (Q07325 23-125): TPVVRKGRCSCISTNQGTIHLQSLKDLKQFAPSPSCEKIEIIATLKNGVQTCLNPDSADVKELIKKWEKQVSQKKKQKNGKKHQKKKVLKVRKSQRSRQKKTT
Protocol: as §1, §2, §3, §4, §5, §6, §7, §8, §9, §10, §11

Lymphotactin = target: T5, Lymphotactin (Homo sapiens, UniProt P47992); assay: Micro-array analysis of chemokine binding peptides: Lymphotactin
T5 construct: purchased 300-20
T5 sequence (P47992 22-114): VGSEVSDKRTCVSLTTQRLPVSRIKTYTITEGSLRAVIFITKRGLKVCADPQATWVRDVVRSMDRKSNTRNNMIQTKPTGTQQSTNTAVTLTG
Protocol: as §1, §2, §3, §4, §5, §6, §7, §8, §9, §10, §11

Eotaxin 3 = target: T6, Eotaxin 3 (Homo sapiens, UniProt Q9Y258); assay: Micro-array analysis of chemokine binding peptides: Eotaxin 3
T6 construct: purchased 300-48
T6 sequence (Q9Y258 24-94): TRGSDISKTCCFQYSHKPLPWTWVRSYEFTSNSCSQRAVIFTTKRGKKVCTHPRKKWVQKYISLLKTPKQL
Protocol: as §1, §2, §3, §4, §5, §6, §7, §8, §9, §10, §11

IL-8 = assay: Micro-array analysis of chemokine binding peptides: IL-8
Protocol: as §1, §2, §3, §4, §5, §6, §7, §8, §9, §10, §11

GRO-β = target: T7, GRO-β (Homo sapiens, UniProt P19875); assay: Micro-array analysis of chemokine binding peptides: GRO-β
T7 construct: purchased 300-39
T7 sequence (P19875 35-107): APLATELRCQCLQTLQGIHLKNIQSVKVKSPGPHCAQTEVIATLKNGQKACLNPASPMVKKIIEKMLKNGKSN
Protocol: as §1, §2, §3, §4, §5, §6, §7, §8, §9, §10, §11

TECK = target: T8, TECK (Homo sapiens, UniProt O15444); assay: Micro-array analysis of chemokine binding peptides: TECK
T8 construct: purchased 300-45
T8 sequence (O15444 24-150): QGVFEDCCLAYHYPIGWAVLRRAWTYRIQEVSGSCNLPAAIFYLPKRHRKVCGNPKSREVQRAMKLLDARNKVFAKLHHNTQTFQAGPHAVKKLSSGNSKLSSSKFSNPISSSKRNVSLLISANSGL
Protocol: as §1, §2, §3, §4, §5, §6, §7, §8, §9, §10, §11

Eotaxin 2 = target: T9, Eotaxin 2 (Homo sapiens, UniProt O00175); assay: Micro-array analysis of chemokine binding peptides: Eotaxin 2
T9 construct: purchased 300-33
T9 sequence (O00175 27-119): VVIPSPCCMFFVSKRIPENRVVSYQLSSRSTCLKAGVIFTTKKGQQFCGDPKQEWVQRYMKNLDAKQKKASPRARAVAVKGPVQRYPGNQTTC
Protocol: as §1, §2, §3, §4, §5, §6, §7, §8, §9, §10, §11

MCP-2 = target: T10, MCP-2 (Homo sapiens, UniProt P80075); assay: Micro-array analysis of chemokine binding peptides: MCP-2
T10 construct: purchased 300-15
T10 sequence (P80075 24-99): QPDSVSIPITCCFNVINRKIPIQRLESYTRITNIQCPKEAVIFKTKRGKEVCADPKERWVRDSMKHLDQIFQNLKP
Protocol: as §1, §2, §3, §4, §5, §6, §7, §8, §9, §10, §11

I-TAC = target: T11, I-TAC (Homo sapiens, UniProt O14625); assay: Micro-array analysis of chemokine binding peptides: I-TAC
T11 construct: purchased 300-46
T11 sequence (O14625 22-94): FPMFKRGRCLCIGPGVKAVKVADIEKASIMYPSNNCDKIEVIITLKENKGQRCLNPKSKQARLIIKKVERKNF
Protocol: as §1, §2, §3, §4, §5, §6, §7, §8, §9, §10, §11

MCP-4 = target: T12, MCP-4 (Homo sapiens, UniProt Q99616); assay: Micro-array analysis of chemokine binding peptides: MCP-4
T12 construct: purchased 300-24
Protocol: as §1, §2, §3, §4, §5, §6, §7, §8, §9, §10, §11

MCP-1 = target: T13, MCP-1 (Homo sapiens, UniProt P13500); assay: Micro-array analysis of chemokine binding peptides: MCP-1
T13 construct: purchased 300-04
Protocol: as §1, §2, §3, §4, §5, §6, §7, §8, §9, §10, §11

IP-10 = target: T14, IP-10 (Homo sapiens, UniProt P02778); assay: Micro-array analysis of chemokine binding peptides: IP-10
T14 construct: purchased 300-12
T14 sequence (P02778 22-98): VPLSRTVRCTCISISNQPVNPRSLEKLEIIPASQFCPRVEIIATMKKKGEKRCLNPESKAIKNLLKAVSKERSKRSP
Protocol: as §1, §2, §3, §4, §5, §6, §7, §8, §9, §10, §11

Fractalkine = target: T15, Fractalkine (Homo sapiens, UniProt P78423); assay: Micro-array analysis of chemokine binding peptides: Fractalkine
T15 construct: purchased 300-31
T15 sequence (P78423 25-100 limits assumed): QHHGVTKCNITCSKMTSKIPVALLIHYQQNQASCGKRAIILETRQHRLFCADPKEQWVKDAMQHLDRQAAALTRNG
Protocol: as §1, §2, §3, §4, §5, §6, §7, §8, §9, §10, §11

Exodus-2 = target: T16, Exodus-2 (Homo sapiens, UniProt O00585); assay: Micro-array analysis of chemokine binding peptides: Exodus-2
T16 construct: purchased 300-35
T16 sequence (O00585 24-134): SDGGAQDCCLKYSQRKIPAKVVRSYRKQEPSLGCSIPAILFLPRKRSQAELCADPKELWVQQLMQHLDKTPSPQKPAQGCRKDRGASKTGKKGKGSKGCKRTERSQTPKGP
Protocol: as §1, §2, §3, §4, §5, §6, §7, §8, §9, §10, §11

[1] = limit = start of the upper 75% of that peptide's response range

T13 sequence (P13500 24-99): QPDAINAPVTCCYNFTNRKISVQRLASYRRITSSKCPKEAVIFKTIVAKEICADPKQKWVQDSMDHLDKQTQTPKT
T1 sequence (P51671 24-97): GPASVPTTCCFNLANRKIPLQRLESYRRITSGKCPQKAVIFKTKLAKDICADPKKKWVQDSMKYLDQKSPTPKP
T12 sequence (Q99616 17-98): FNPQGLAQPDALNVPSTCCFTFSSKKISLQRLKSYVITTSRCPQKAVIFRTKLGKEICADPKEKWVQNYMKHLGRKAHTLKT
Sequence of IL-8 (P10145 28-99 limits assumed): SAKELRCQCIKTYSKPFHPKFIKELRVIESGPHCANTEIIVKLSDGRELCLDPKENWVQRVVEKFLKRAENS

Substance | binding to Eotaxin, stated in words (Eotaxin) | binding to RANTES, stated in words (RANTES) | binding to BCA-1, stated in words (BCA-1) | binding to Lymphotactin, stated in words (Lymphotactin) | binding to Eotaxin 3, stated in words (Eotaxin 3) | binding to IL-8, stated in words (IL-8) | binding to GRO-β, stated in words (GRO-β) | binding to TECK, stated in words (TECK) | binding to MCP-4, stated in words (MCP-4) | binding to MCP-1, stated in words (MCP-1) | binding to Mig, stated in words (Mig) | other results
DRYLNIVHAT [Ph-p18] | bound | bound | bound | bound | bound | bound | bound | bound | bound | bound |  | binding to Mig with relatively high affinity (Relative Fluorescence Units) (Mig; [1]): > 9,000 RFU; binding to Eotaxin 2, stated in words (Eotaxin 2): bound; binding to MCP-2, stated in words (MCP-2): bound; binding to I-TAC with relatively high affinity (Relative Fluorescence Units) (I-TAC; [1]): > 9,000 RFU
TKCOKE (TKCQKE; listed as Homo sapiens) [Ph-p20] | bound | bound | bound | bound | bound | bound | bound | bound |  |  | bound | binding to IP-10, stated in words (IP-10): bound; binding to MCP-2 with relatively high affinity (Relative Fluorescence Units) (MCP-2; [1]): > 15,000 RFU; binding to Fractalkine, stated in words (Fractalkine): bound; binding to MCP-4 with relatively high affinity (Relative Fluorescence Units) (MCP-4; [1]): > 15,000 RFU; binding to MCP-1 with relatively high affinity (Relative Fluorescence Units) (MCP-1; [1]): > 15,000 RFU; binding to Exodus-2, stated in words (Exodus-2): bound
HYTCSSHFP [Ph-p17] | bound |  |  | bound | bound | bound | bound | bound | bound | bound | bound | binding to I-TAC, stated in words (I-TAC): bound
